Common to all, as to assay: Kinase Profiling Assay
Format in all cases: biochemical
Conditions in all cases: peptide 100 μM

The target in one assay is BRK(h) (Homo sapiens, UniProt Q13882). In a few lines: (§1)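 In this 266-kinase specificity panel, every measurement was duplicated. Transfer of labeled phosphate from ATP to a cationic substrate was quantified after the substrate adhered to an anionic filter membrane and was scintillation-counted, then related to a full-activity control.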
The target of another assay is T1, DCAMKL2(h) (Homo sapiens, UniProt Q8N568).
T1 sequence (Q8N568 1-766): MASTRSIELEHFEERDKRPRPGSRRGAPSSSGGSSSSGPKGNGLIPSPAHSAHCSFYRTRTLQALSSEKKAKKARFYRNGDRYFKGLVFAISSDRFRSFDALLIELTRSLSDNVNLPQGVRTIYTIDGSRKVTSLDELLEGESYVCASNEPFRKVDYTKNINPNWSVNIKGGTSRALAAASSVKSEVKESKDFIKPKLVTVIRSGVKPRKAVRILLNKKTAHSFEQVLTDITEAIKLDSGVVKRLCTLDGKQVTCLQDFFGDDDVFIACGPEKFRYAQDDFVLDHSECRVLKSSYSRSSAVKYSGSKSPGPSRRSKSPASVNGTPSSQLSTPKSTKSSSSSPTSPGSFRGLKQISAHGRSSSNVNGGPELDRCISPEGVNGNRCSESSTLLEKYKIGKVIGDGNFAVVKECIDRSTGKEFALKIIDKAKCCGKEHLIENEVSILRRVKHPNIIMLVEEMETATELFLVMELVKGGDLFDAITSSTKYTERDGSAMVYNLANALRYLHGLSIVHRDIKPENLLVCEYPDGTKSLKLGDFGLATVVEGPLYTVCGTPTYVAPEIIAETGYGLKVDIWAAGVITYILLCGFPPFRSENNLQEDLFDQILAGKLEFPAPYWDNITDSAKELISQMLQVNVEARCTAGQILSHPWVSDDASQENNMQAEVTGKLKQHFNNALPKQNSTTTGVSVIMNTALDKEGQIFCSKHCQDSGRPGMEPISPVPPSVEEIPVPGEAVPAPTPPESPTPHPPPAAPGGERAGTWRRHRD
In a few lines: as §1

Another assay concerns the target Ros(h) (Homo sapiens, UniProt P08922). The gist of the method: as §1
The next assay deals with PKBγ(h) (Homo sapiens, UniProt Q9Y243). The gist of the method:
as §1

For another assay, the target named is CK2(h) (Homo sapiens, UniProt P68400). In a few lines:
as §1

The next assay concerns the target T2, EphA3(h) (Homo sapiens, UniProt P29320).
T2 sequence (P29320 21-983): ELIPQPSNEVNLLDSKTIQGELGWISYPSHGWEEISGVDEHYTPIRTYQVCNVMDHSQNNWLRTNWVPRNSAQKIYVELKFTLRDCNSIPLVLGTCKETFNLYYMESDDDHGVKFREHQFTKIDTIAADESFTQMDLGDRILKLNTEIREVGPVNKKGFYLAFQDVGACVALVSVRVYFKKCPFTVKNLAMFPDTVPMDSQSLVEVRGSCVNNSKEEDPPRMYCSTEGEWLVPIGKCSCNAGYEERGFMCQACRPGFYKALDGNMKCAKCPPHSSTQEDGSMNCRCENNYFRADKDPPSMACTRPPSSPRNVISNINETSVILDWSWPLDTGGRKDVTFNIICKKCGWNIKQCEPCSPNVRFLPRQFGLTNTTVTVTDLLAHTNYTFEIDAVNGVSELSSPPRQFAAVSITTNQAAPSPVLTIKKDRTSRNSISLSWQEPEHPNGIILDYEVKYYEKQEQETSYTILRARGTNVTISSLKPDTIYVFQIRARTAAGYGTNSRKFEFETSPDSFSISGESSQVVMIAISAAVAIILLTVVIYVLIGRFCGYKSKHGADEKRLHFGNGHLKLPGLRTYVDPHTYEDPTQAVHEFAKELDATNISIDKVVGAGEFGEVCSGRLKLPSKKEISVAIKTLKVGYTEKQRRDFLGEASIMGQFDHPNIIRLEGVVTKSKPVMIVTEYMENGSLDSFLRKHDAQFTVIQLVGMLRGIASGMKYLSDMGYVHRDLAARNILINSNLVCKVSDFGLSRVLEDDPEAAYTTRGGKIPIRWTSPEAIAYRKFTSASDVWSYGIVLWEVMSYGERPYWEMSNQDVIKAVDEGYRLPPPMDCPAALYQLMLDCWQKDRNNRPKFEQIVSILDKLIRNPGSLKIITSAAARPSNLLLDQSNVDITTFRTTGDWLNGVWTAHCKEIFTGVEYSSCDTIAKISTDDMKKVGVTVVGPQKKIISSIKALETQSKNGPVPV
In a few lines: as §1

Another assay addresses T3, DYRK2(h) (Homo sapiens, UniProt Q92630).
T3 sequence (Q92630 1-601): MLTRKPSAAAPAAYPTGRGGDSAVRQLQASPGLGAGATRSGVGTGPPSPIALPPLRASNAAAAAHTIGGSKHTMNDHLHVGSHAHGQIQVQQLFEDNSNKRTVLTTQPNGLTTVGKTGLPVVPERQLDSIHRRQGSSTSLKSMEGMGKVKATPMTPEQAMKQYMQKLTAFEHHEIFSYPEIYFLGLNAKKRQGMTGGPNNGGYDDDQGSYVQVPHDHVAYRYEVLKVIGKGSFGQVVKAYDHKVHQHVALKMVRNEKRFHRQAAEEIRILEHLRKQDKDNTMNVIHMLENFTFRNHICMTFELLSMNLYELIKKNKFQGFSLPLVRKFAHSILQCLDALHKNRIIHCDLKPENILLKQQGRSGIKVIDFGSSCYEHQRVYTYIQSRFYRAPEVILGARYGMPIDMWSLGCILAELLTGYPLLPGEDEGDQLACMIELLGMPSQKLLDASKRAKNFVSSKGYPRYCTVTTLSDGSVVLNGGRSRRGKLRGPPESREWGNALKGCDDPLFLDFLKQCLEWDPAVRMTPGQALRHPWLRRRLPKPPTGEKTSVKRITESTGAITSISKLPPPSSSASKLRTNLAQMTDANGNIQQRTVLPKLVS
In a few lines:
as §1

No end group written: not given here.

Ros(h), sequence (P08922 28-2347): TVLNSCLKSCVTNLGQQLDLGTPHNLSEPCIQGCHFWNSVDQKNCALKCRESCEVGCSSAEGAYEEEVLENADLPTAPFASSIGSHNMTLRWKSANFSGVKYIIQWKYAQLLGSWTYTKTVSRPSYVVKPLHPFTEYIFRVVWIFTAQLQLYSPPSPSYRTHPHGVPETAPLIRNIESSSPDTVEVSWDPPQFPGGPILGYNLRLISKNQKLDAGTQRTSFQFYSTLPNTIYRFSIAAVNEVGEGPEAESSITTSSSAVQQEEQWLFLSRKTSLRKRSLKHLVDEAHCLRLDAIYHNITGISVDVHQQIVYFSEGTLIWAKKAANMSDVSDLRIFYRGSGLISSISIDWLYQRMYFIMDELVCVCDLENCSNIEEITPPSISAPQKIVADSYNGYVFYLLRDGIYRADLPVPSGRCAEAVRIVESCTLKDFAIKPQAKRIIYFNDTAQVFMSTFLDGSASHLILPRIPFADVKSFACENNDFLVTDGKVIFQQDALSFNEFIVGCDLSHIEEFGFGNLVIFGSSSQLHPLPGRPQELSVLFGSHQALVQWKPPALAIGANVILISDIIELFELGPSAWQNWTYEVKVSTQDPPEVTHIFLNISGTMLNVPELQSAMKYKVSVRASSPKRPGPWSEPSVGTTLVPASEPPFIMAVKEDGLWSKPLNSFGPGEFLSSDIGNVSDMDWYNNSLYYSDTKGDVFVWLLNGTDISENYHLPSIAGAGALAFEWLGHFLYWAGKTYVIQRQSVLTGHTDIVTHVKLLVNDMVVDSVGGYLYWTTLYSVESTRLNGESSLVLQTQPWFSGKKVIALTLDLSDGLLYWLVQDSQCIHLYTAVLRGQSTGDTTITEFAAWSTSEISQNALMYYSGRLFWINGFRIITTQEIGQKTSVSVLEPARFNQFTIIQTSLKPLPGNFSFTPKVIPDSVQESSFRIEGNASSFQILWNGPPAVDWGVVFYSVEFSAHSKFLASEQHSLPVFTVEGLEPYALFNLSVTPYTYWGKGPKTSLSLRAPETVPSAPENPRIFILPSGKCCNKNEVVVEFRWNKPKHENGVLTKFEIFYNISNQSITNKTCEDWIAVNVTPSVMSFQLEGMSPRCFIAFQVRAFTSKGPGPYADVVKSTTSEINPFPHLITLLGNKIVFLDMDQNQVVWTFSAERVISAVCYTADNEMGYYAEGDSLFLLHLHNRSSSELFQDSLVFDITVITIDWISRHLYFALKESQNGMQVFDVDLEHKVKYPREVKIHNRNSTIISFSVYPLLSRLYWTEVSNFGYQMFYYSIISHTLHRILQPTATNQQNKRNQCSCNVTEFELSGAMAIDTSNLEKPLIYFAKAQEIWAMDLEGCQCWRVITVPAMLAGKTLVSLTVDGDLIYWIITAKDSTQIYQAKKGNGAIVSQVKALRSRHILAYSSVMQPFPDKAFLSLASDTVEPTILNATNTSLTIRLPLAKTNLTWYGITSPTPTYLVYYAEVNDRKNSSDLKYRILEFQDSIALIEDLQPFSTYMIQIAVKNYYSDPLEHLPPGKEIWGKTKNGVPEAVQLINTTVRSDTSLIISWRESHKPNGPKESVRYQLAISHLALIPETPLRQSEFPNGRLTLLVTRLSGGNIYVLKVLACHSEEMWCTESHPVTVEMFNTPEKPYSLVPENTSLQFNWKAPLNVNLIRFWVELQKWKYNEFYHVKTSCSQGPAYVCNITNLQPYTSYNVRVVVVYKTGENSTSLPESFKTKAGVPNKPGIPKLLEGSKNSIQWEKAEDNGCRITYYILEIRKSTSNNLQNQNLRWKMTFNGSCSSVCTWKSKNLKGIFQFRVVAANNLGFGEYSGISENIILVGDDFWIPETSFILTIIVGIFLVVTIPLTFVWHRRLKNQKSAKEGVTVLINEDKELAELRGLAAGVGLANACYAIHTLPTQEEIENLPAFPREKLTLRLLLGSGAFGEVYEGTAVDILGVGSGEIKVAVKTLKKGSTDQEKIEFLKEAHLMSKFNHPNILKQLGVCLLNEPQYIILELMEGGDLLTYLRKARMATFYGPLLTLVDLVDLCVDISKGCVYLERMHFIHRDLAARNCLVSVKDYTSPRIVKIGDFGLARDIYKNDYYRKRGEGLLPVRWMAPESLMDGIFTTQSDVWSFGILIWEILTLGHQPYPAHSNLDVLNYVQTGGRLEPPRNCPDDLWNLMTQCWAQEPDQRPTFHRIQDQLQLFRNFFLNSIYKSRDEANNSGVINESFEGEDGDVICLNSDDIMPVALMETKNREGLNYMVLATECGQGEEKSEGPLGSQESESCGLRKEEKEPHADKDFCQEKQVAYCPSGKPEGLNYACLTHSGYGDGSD
PKBγ(h), sequence (Q9Y243 whole entry): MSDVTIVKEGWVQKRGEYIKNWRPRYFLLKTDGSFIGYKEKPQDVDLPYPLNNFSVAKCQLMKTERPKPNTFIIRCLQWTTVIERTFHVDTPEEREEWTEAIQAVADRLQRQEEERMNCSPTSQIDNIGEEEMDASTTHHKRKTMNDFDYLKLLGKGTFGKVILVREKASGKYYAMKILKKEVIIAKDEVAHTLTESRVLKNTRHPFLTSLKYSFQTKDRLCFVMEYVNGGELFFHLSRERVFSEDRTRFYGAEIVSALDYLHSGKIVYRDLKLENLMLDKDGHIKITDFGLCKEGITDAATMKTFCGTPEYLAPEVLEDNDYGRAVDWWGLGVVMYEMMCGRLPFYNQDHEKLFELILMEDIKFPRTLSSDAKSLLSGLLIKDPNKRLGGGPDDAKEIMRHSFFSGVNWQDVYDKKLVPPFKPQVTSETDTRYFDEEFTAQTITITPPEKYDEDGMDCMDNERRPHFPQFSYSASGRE
BRK(h), sequence (Q13882 whole entry): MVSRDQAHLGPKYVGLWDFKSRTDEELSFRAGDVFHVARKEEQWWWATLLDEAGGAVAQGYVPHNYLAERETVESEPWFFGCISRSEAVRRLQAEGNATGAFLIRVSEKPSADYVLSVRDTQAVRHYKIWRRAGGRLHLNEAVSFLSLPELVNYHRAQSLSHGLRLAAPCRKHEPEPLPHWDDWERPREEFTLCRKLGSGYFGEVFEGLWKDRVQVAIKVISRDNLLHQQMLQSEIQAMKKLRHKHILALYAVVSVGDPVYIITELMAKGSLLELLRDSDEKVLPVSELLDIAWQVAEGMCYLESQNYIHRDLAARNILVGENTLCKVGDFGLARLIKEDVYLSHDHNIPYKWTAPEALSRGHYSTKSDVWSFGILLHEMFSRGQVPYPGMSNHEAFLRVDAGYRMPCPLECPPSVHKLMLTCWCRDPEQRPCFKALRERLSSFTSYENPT
CK2(h), sequence (P68400 whole entry): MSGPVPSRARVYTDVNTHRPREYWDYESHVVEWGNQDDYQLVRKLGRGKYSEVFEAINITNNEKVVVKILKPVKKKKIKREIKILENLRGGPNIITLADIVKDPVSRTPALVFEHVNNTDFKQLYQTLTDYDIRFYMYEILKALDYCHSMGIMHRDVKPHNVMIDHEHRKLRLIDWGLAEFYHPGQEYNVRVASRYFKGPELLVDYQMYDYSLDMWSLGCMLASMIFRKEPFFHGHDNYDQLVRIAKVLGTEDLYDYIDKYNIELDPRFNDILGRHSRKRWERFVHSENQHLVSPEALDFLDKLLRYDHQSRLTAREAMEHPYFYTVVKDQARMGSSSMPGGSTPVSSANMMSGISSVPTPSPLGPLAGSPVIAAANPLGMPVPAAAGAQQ
CK2(h), sequence (P67870 whole entry partner): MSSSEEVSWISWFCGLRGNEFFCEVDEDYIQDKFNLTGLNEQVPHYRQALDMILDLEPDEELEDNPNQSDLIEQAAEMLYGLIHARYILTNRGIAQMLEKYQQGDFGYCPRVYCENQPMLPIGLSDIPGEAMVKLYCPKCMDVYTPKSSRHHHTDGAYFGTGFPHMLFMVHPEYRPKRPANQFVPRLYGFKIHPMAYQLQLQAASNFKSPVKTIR

As for FAKLAARLYRKALARQLGVAA [MMI-0300], the “% activity” value with BRK(h) is 35%; in the assay with DCAMKL2(h), 81%; with Ros(h) it was 95%; with PKBγ(h), 20%; with CK2(h), 90%; with EphA3(h), 6%. Further, the “% activity” value with DYRK2(h) is 155%.
For “HRRIKAWLKKIKALARQLGVAA (Mammal) [MMI-0500]”, the “% activity” value was found to be 41% with BRK(h); 56% in the assay with DCAMKL2(h); 150% with Ros(h); 20% in the assay with PKBγ(h); 93% in the assay with CK2(h); 33% in the assay with EphA3(h). Moreover, the “% activity” value with DYRK2(h) was 127%.
With KAFAKLAARLYRKALARQLGVAA [MMI-0400], the “% activity” value in the assay with BRK(h) is 18%; with DCAMKL2(h), 70%; with Ros(h), 99%; in the assay with PKBγ(h), 41%; with CK2(h), 101%; in the assay with EphA3(h) it was 12%. The “% activity” value with DYRK2(h) stood at 195%.
Regarding YARAAARQARAKALARQLGVAA [MMI-0100], the “% activity” value at BRK(h) is 70%; at DCAMKL2(h) it was 146%.
As for “YARAAARQARAKALNRQLGVA (Mammal) [MMI-0200]”, the “% activity” value with BRK(h) was 127%; in the assay with DCAMKL2(h), 131%; with Ros(h), 86%; with CK2(h), 83%; in the assay with DYRK2(h), 142%.

The record behind these values is US20150258192A1, “COMPOSITIONS AND METHODS FOR PREVENTING OR TREATING CHRONIC LUNG ALLOGRAFT DYSFUNCTION (CLAD) AND IDIOPATHIC PULMONARY FIBROSIS (IPF)” (priority 2014, published 2015).
